The text below walks through data of patent publication US20030119023.

pKd: −log10 of the molar value.

Holding throughout (assay): EMSA
In data set [1] the target is ZIF-F4-GAC (TFIIIA finger 4 linker) (artificial) (UniProt P08046). The conditions noted are these: apparent Kd.
The target of data set [2] is ZIF-flex-GAC (linker TG(GSG)5ERP) (artificial) (UniProt P08046). The conditions noted are these: all sites approximately 50 pM.
Data set [3] concerns ZIF-ZnF-GAC (serine-finger linker) (artificial). The conditions noted are these: apparent Kd.
Data set [4] deals with ZIF-F4mut-GAC (ZIF-mutF4-GAC; TFIIIA finger 4 flanked by GERP linkers) (artificial) (UniProt P08046). As to conditions: apparent Kd.
Data set [5] has as its target ZIF-mutZnF-GAC (serine finger flanked by NIKICV and TQQLP) (artificial) (UniProt P08046).
Another data set deals with 3x2F ZGS (artificial). The conditions noted are these: apparent Kd; half-site; hard to quantify.
The subject of data set [6] is TF(1-4)-ZIF (TFIIIA F1-4 fused to Zif268) (artificial). The conditions noted are these: apparent Kd; half-site.
In data set [7] the target is TF(1-3)-flex-ZIF (linker TG(GSG)5ERP) (artificial) (UniProt P03001+P08046). The conditions noted are these: apparent Kd.
Data set [8] deals with 2x3F ZIF-GAC (artificial). As to conditions: apparent Kd; half-site.

Chain of 3x2F ZGS (artificial) (chain, as listed by the source): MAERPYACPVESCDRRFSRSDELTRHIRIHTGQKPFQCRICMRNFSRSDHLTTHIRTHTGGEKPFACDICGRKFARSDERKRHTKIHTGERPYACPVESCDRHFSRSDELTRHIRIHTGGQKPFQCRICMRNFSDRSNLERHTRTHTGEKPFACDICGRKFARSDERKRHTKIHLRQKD

For the sequence “GCGGACGCGGCGTGGGCG (double strand) [bsC (123456, ZM)]”, the pKd was 10.96 in data set [1] and 10.30 in [2].
Take “GCGGACGCGNGCGTGGGCG (double strand) [Z1M]”: the figures for the pKd in data set [1], in data set [3] and in data set [2] were 11.22, 11.40 and 10.30, respectively.
On the same counts, the results for “GCGGACGCGNNGCGTGGGCG (double strand) [Z2M]” are 11.15, 11.22 and 10.30.
Taken in the same sequence, the figures for “GCGGACGCGNNNGCGTGGGCG (double strand) [Z3M]” were 11.30, 11.40 and 10.30.
For “GCGGACGCGNNNNGCGTGGGCG (double strand) [Z4M]”, the pKd is 10.89 in data set [1], 11.52 in data set [3] and 10.30 in [2].
Take “GCGGACGCGNNNNNGCGTGGGCG (double strand) [Z5M]”: the pKd in data set [1] was 10.80; in [4], 10.89; in [3], 11.10; in data set [5], 10.74; in data set [2], 10.30.
Taken in the same sequence, the figures for “GCGGACGCGNNNNNNGCGTGGGCG (double strand) [Z6M]” were 10.77, 10.89, 11.15, 10.96 and 10.30.
Turning to “GCGGACGCGNNNNNNNGCGTGGGCG (double strand) [Z7M]”, the pKd in data set [1] is 11.30; in data set [3], 11.52; in data set [2], 10.30.
As for “GCGGACGCGNNNNNNNNGCGTGGGCG (double strand) [Z8M]”, the pKd in data set [1] was 11.30; in data set [3], 11.22; in [2], 10.30.
In the case of “GCGGACGCGNNNNNNNNNGCGTGGGCG (double strand) [Z9M]”, the figures for the pKd in data set [1], in data set [3] and in [2] were 11.30, 11.40 and 10.30, respectively.
In the case of “GCGGACGCGNNNNNNNNNNGCGTGGGCG (double strand) [Z10M]”, the figures for the negative-log Kd (pKd) in data set [1], in data set [3] and in [2] were 11.40, 11.52 and 10.30, respectively.
As for “GCGTGGGCG (double strand) [bsA (ZIF site)]”, the negative logarithm of the Kd (pKd) is 6.96 in the data set on 3x2F ZGS (artificial); 8.66 in data set [1] (half-site); 8.70 in data set [6]; 8.74 in [7] (half-site); 8.70 in data set [3] (half-site); 8.66 in data set [8].
As for “GCGTGGGCGAGTACCTGGATGGGAGAC (double strand) [TF7Z (bsC1)]”, in [7], the pKd is 10.24.
Turning to “GCGTGGGCGGTACCTGGATGGGAGAC (double strand) [TF6Z (bsB1)]”, in data set [7], the negative-log Kd (pKd) is 10.17.
On the same count and under the same terms, with “GCGTGGGCGTACCTGGATGGGAGAC (double strand) [TF5Z (bsA1)]” the figure was 10.20; with “GCGTGGGCGTAGTACCTGGATGGGAGAC (double strand) [TF8Z (bsD1)]”, 10.21.
Take “GCGTGGGCGTTAGTACCTGGATGGGAGAC (double strand) [TF9Z (bsE1)]”: in data set [7], the pKd is 10.24.
